According to patent US20050118674A1, “Engineering of Controlled Deamidation Rates in Peptides, Proteins, and Similar Structures” (priority 2003, published 2005):
Where no end group is shown, it is not given here.

Assay: First-order nonenzymatic deamidation of pentapeptides in Tris buffer
Type: physicochemical
Details: pH 7.4, 37.0° C., 0.15 M Tris HCl; Asn pentapeptides
Method: One of the discoveries made was that the sequence dependence of deamidation is much richer and covers a wider range than previously thought. In 37° C., pH 7.4, 0.15 M Tris buffer, the combination of XxxAsnYyy and XxxGlnYyy sequences where Xxx and Yyy are any of the naturally occuring amino acids covers a range from less than 1 day to over 15,000 days with the entire range in between available.
It is based on pentapeptide rates measure in 37° C., pH 7.4, 0.15 M Tris buffer. The applicability of a pentapeptide model to sequence dependence was verified in a separate set of experiments. All values listed in this table are experimental except for the four values in boxes, which were estimated from the rest of the data.
It is also based on pentapeptide rates measure in 37° C., pH 7.4, 0.15 M Tris buffer. In this case, the 52 values shown in bold were measured, and the rest of the values were derived from surface fitting.
Deamidation rates are affected by a wide variety of parameters, including, pH, Temperature, Ionic Strength, and Buffer Ions. These rates are measured under pH and Temperature conditions that are applicable to biological systems. The buffer type and concentration were chosen to minimize ion affects to the extent possible given the experimental limitations. Modification of these conditions will change the rates in Tables 1 and 2. As long as the conditions are not taken to extremes (i.e. high temperature, or strongly acidic or basic conditions) the qualitative sequence dependence should remain the same and the rates reported here can be used with necessary adjustments.

| Substance | First-Order Deamidation Halftimes of GlyXxxAsnYyyGly |
| --- | --- |
| GlyAlaAsnAlaGly (GANAG; printed: GlyAlaAsnAlaGly) | 22.5 days |
| GlyAlaAsnAmCysGly | 40.6 days |
| GlyAlaAsnArgGly (GANRG; printed: GlyAlaAsnArgGly) | 62.4 days |
| GlyAlaAsnAspGly (GANDG; printed: GlyAlaAsnAspGly) | 31.9 days |
| GlyAlaAsnCysGly (GANCG; printed: GlyAlaAsnCysGly) | 63.7 days |
| GlyAlaAsnGluGly (GANEG; printed: GlyAlaAsnGluGly) | 74.1 days |
| GlyAlaAsnGlyGly (GANGG; printed: GlyAlaAsnGlyGly) | 1.05 days |
| GlyAlaAsnHisGly (GANHG; printed: GlyAlaAsnHisGly) | 9.3 days |
| GlyAlaAsnIleGly (GANIG; printed: GlyAlaAsnIleGly) | 300 days |
| GlyAlaAsnLeuGly (GANLG; printed: GlyAlaAsnLeuGly) | 124 days |
| GlyAlaAsnLysGly (GANKG; printed: GlyAlaAsnLysGly) | 55.9 days |
| GlyAlaAsnMetGly (GANMG; printed: GlyAlaAsnMetGly) | 59.2 days |
| GlyAlaAsnPheGly (GANFG; printed: GlyAlaAsnPheGly) | 65.6 days |
| GlyAlaAsnProGly (GANPG; printed: GlyAlaAsnProGly) | 7370 days |
| GlyAlaAsnSerGly (GANSG; printed: GlyAlaAsnSerGly) | 14.9 days |
| GlyAlaAsnThrGly (GANTG; printed: GlyAlaAsnThrGly) | 43.5 days |
| GlyAlaAsnTrpGly (GANWG; printed: GlyAlaAsnTrpGly) | 130 days |
| GlyAlaAsnTyrGly (GANYG; printed: GlyAlaAsnTyrGly) | 73.9 days |
| GlyAlaAsnValGly (GANVG; printed: GlyAlaAsnValGly) | 254 days |
| GlyAmCysAsnAlaGly (CNAG; not fully specified (N-terminus); printed as GlyAmCysAsnAlaGly) | 21.5 days |
| GlyAmCysAsnAmCysGly | 39.3 days |
| GlyAmCysAsnArgGly (CNRG; not fully specified (N-terminus); printed as GlyAmCysAsnArgGly) | 58.8 days |
| GlyAmCysAsnAspGly (CNDG; not fully specified (N-terminus); printed as GlyAmCysAsnAspGly) | 32.9 days |
| GlyAmCysAsnGluGly (CNEG; not fully specified (N-terminus); printed as GlyAmCysAsnGluGly) | 45 days |

| Substance | First-Order Deamidation Halftimes of GlyXxxAsnYyyGly |
| --- | --- |
| GlyAmCysAsnGlyGly (CNGG; not fully specified (N-terminus); printed as GlyAmCysAsnGlyGly) | 1.14 days |
| GlyAmCysAsnHisGly (CNHG; not fully specified (N-terminus); printed as GlyAmCysAsnHisGly) | 10.9 days |
| GlyAmCysAsnIleGly (CNIG; not fully specified (N-terminus); printed as GlyAmCysAsnIleGly) | 250 days |
| GlyAmCysAsnLeuGly (CNLG; not fully specified (N-terminus); printed as GlyAmCysAsnLeuGly) | 100 days |
| GlyAmCysAsnLysGly (CNKG; not fully specified (N-terminus); printed as GlyAmCysAsnLysGly) | 48.9 days |
| GlyAmCysAsnMetGly (CNMG; not fully specified (N-terminus); printed as GlyAmCysAsnMetGly) | 56.5 days |
| GlyAmCysAsnPheGly (CNFG; not fully specified (N-terminus); printed as GlyAmCysAsnPheGly) | 63.3 days |
| GlyAmCysAsnProGly (CNPG; not fully specified (N-terminus); printed as GlyAmCysAsnProGly) | 3900 days |
| GlyAmCysAsnSerGly (CNSG; not fully specified (N-terminus); printed as GlyAmCysAsnSerGly) | 15.4 days |
| GlyAmCysAsnThrGly (CNTG; not fully specified (N-terminus); printed as GlyAmCysAsnThrGly) | 41.7 days |
| GlyAmCysAsnTrpGly (CNWG; not fully specified (N-terminus); printed as GlyAmCysAsnTrpGly) | 81.3 days |
| GlyAmCysAsnTyrGly (CNYG; not fully specified (N-terminus); printed as GlyAmCysAsnTyrGly; also: glycinamide shown before Cys, linkage not given here) | 78.8 days |
| GlyAmCysAsnValGly (CNVG; not fully specified (N-terminus); printed as GlyAmCysAsnValGly; also: glycinamide shown before Cys, linkage not given here) | 215 days |
| GlyArgAsnAlaGly (GRNAG; printed: GlyArgAsnAlaGly) | 24.4 days |
| GlyArgAsnAmCysGly | 42.3 days |
| GlyArgAsnArgGly (GRNRG; printed: GlyArgAsnArgGly) | 67.4 days |
| GlyArgAsnAspGly (GRNDG; printed: GlyArgAsnAspGly) | 34.7 days |
| GlyArgAsnCysGly (GRNCG; printed: GlyArgAsnCysGly) | 50.5 days |
| GlyArgAsnGluGly (GRNEG; printed: GlyArgAsnGluGly) | 68.3 days |
| GlyArgAsnGlyGly (GRNGG; printed: GlyArgAsnGlyGly) | 1.00 days |
| GlyArgAsnHisGly (GRNHG; printed: GlyArgAsnHisGly) | 10.0 days |
| GlyArgAsnIleGly (GRNIG; printed: GlyArgAsnIleGly) | 311 days |
| GlyArgAsnLeuGly (GRNLG; printed: GlyArgAsnLeuGly) | 128 days |

Same assay, conditions: pH 7.4, 37.0 ° C., 0.15 M Tris HCl; Gln pentapeptides; 52 values measured, rest derived from surface fitting

| Substance | First-Order Deamidation Halftimes of GlyXxxGlnYyyGly |
| --- | --- |
| GlyAlaGlnAlaGly (GAQAG; printed: GlyAlaGlnAlaGly) | 5300 days |
| GlyAlaGlnArgGly (GAQRG; printed: GlyAlaGlnArgGly) | 7200 days |
| GlyAlaGlnAspGly (GAQDG; printed: GlyAlaGlnAspGly) | 7400 days |
| GlyAlaGlnCysGly (GAQCG; printed: GlyAlaGlnCysGly) | 1900 days |
| GlyAlaGlnGluGly (GAQEG; printed: GlyAlaGlnGluGly) | 7300 days |
| GlyAlaGlnGlyGly (GAQGG; printed: GlyAlaGlnGlyGly) | 610 days |
| GlyAlaGlnHisGly (GAQHG; printed: GlyAlaGlnHisGly) | 5500 days |
| GlyAlaGlnIleGly (GAQIG; printed: GlyAlaGlnIleGly) | 6200 days |
| GlyAlaGlnLeuGly (GAQLG; printed: GlyAlaGlnLeuGly) | 6100 days |
| GlyAlaGlnLysGly (GAQKG; printed: GlyAlaGlnLysGly) | 5700 days |
| GlyAlaGlnMetGly (GAQMG; printed: GlyAlaGlnMetGly) | 4400 days |
| GlyAlaGlnPheGly (GAQFG; printed: GlyAlaGlnPheGly) | 7500 days |
| GlyAlaGlnProGly (GAQPG; printed: GlyAlaGlnProGly) | 9300 days |
| GlyAlaGlnSerGly (GAQSG; printed: GlyAlaGlnSerGly) | 5200 days |
| GlyAlaGlnThrGly (GAQTG; printed: GlyAlaGlnThrGly) | 5100 days |
| GlyAlaGlnTrpGly (GAQWG; printed: GlyAlaGlnTrpGly) | 14000 days |
| GlyAlaGlnTyrGly (GAQYG; printed: GlyAlaGlnTyrGly) | 10000 days |
| GlyAlaGlnValGly (GAQVG; printed: GlyAlaGlnValGly) | 6400 days |
